Test results from paper doi:10.1101/2024.10.14.618219.

Target: microtubules polymerized from porcine tubulin (porcine) (UniProt Q2XVP4)
Experiment: single-molecule TIRF microscopy on microtubules

Sequence of Kif3A^ΔC103-Kif3B (Q9Y496 1-596, stated change not applied): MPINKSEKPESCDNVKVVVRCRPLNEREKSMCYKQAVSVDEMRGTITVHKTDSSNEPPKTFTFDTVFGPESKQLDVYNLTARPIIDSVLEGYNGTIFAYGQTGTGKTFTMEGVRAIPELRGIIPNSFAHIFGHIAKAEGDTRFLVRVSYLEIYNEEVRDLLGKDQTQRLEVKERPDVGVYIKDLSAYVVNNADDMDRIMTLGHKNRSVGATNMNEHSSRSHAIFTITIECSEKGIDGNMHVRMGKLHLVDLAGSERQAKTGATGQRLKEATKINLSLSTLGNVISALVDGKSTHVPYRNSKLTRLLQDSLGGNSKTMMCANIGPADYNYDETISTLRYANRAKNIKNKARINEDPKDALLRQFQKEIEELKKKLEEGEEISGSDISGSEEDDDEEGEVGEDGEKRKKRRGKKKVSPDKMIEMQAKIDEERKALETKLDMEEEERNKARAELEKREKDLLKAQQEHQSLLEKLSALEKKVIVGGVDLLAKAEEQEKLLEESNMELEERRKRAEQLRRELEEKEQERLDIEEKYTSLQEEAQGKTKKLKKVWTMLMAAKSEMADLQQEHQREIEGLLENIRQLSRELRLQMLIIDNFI
Sequence of Kif3A^ΔC103-Kif3B (O15066 whole entry, stated change not applied): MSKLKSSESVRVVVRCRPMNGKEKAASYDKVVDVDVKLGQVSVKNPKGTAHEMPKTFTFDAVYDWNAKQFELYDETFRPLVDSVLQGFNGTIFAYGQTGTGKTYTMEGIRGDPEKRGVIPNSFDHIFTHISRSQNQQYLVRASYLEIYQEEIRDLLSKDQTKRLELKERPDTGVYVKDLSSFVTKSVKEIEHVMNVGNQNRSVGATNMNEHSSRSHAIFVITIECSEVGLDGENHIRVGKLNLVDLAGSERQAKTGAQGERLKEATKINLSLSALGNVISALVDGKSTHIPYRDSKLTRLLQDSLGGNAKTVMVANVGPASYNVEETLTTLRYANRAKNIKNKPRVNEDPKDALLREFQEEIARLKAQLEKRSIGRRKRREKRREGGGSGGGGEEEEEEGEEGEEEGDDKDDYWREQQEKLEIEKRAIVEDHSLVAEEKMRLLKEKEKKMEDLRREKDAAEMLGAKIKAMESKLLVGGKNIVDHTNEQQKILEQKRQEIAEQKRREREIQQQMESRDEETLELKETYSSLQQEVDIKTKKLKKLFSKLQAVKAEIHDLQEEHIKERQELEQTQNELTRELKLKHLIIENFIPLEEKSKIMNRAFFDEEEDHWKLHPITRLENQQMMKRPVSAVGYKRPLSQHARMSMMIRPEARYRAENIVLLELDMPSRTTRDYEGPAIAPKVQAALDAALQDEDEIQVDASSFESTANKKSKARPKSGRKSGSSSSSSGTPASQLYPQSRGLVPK
Sequence of Kif3A^ΔC89-Kif3B (Q9Y496 1-610, stated change not applied): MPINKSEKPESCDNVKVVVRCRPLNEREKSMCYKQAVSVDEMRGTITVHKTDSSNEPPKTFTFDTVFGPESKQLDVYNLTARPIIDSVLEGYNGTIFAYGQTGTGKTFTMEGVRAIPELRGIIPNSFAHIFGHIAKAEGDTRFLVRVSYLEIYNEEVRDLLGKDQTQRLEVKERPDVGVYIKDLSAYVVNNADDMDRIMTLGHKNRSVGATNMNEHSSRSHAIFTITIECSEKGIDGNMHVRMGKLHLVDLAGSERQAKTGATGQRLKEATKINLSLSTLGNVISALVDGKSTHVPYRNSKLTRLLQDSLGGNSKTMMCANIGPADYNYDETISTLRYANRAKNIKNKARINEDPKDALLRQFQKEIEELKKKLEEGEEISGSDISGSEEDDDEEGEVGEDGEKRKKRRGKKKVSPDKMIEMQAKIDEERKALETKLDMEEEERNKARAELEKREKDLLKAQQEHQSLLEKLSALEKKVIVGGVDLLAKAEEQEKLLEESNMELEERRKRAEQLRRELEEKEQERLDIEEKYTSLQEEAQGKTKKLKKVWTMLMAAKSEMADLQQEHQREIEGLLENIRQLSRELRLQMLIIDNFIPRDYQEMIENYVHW
Sequence of Kif3A^ΔC89-Kif3B (O15066 whole entry, stated change not applied): as the sequence (O15066 whole entry, stated change not applied) above

Which landing rate (μm^-1 nM^-1 min^-1) does the source give for “Kif3A^ΔC89-Kif3B (from UniProt Q9Y496 1-610; O15066 1-747) (complex)” here?
The landing rate (μm^-1 nM^-1 min^-1) was 0.6.

For “Kif3A^ΔC103-Kif3B (from UniProt Q9Y496 1-596; O15066 1-747) (complex)”, which landing rate (μm^-1 nM^-1 min^-1) is on record?
Its landing rate (μm^-1 nM^-1 min^-1) is 0.6.
